Laboratory results as given in US20250019439A1 (Adimab, published 2025).

Assays:
[1] = biological target: T1, ADI-22523 IgG; experiment: BLI; tip anti-ID IgG, solution ADI-22523 IgG
T1 construct: anti-CD3 IgG
Protocol: (§1) ForteBio affinity measurements were performed generally as previously described (Estep et al., MAbs. 2013 5(2):270-8). Briefly, ForteBio affinity measurements were performed by loading antibody IgG or Fabs on-line onto AHC sensors. Sensors were equilibrated off-line in assay buffer for 30 minutes and then monitored on-line for 60 seconds for baseline establishment. For avid binding measurement, sensors with loaded antibodies were exposed to IgG or Fab solutions for 3 minutes, afterwards they were transferred to assay buffer for 3 minutes for off-rate measurement. Kinetics data were fit using a 1:1 binding model in the data analysis software provided by ForteBio to obtain equilibrium dissociation constant (KD=koff/kₒₙ) values. In each column, tip-immobilized antibodies are listed first and solution antibodies second.

[2] = biological target: T2, ADI-76361; experiment: SPR Carterra avidity, yeast anti-ID, *koff limit
T2 construct: anti-CD3 antibody made in CHO cells, captured by anti-human Fc
Protocol: (§2) Kinetic analysis was conducted at 25° C. in an HBSTE running buffer system (Carterra Cat #3630) using a Carterra LSA (Carterra USA, Salt Lake City, UT). The sample compartment was maintained at 20° C. for the duration of each experiment.
(§3) For antibody capture experiments, a goat anti-human Fc antibody (Jackson ImmunoResearch) was covalently coupled to an HC30M sensor chip surface via standard amine coupling (1:1 EDC:NHS) and then blocked with ethanolamine (1.0 M, pH 8.5). Covalent coupling steps were performed in 25 mM MES buffer (Carterra, Cat #3625) plus 0.05% Tween20. The anti-CD3 antibodies (100 nM in running buffer) were flowed over discrete regions of interest on the chip surface for 5 minutes. […] Dissociation of the anti-idiotype antibodies was monitored for 300s. Several blank buffer samples were injected over the entire chip surface at the start of each non-regenerative kinetic cycle. The preceding blank buffer injection was used for blank surface subtraction. At the end of each non-regenerative kinetic cycle, all surfaces were regenerated via two 30s injections of 10 mM glycine, pH 1.7.
(§4) For data processing and fitting, sensorgrams were double reference subtracted with a baseline drift correction of 4 RU. Sensorgrams were y-aligned and baseline corrected, filtered and cropped to include only the association and dissociation steps. Data was fitted to a 1:1 binding model using Carterra Kinetics Data Analysis software version 1.7.1.3055.

[3] = biological target: T3, ADI-76357; experiment: SPR Carterra avidity, yeast anti-ID, *koff limit
T3 construct: anti-CD3 antibody made in CHO cells, captured by anti-human Fc
T3 sequence (VH, as listed by the source, chain 1 of 2): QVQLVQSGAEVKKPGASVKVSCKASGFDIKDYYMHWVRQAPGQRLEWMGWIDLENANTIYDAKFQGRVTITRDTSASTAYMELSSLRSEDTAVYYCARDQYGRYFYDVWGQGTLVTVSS
T3 sequence (VL, as listed by the source, chain 2 of 2): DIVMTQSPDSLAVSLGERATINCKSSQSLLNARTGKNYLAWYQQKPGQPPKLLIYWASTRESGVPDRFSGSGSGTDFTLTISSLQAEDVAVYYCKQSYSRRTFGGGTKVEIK
Protocol: as §2, §3, §4

[4] = biological target: T4, ADI-50024; experiment: SPR Carterra avidity, yeast anti-ID, *koff limit
T4 construct: anti-CD3 antibody made in CHO cells, captured by anti-human Fc
T4 sequence (VH, as listed by the source limits assumed, chain 1 of 2): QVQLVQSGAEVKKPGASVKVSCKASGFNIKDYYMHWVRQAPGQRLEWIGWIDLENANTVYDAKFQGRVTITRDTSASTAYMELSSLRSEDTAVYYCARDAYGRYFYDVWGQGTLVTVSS
T4 sequence (VL, as listed by the source limits assumed, chain 2 of 2): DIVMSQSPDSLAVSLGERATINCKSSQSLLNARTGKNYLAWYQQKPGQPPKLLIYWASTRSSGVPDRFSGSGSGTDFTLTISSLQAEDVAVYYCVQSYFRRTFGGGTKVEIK
Protocol: as §2, §3, §4

[5] = biological target: T5, ADI-26920 IgG; experiment: SPR Carterra avidity, yeast anti-ID, *koff limit
T5 construct: anti-CD3 IgG
Protocol: as §2, §3, §4

[6] = biological target: T6, ADI-26906 IgG; experiment: SPR Carterra avidity, yeast anti-ID, *koff limit
T6 construct: anti-CD3 IgG
Protocol: as §2, §3, §4

[7] = biological target: T7, ADI-74967; experiment: SPR Carterra avidity, yeast anti-ID, *koff limit
T7 construct: pH-dependent anti-CD3 antibody made in CHO cells
Protocol: as §2, §3, §4

[8] = biological target: T8, ADI-22523 Fab; experiment: BLI; tip anti-ID IgG, solution ADI-22523 Fab
T8 construct: anti-CD3 Fab by papain digestion of the IgG
Protocol: as §1

[9] = biological target: T9, CTL-62223; experiment: SPR Carterra avidity, yeast anti-ID
T9 construct: also called mosunetuzumab
Protocol: as §2, §3, §4

[10] = biological target: T10, ADI-26912; experiment: SPR Carterra avidity, yeast anti-ID
T10 construct: anti-CD3 antibody made in CHO cells, captured by anti-human Fc
Protocol: as §2, §3, §4

[11] = biological target: T11, ADI-76362; experiment: SPR Carterra avidity, yeast anti-ID
T11 construct: anti-CD3 antibody made in CHO cells, captured by anti-human Fc
T11 sequence (VH, as listed by the source, chain 1 of 2): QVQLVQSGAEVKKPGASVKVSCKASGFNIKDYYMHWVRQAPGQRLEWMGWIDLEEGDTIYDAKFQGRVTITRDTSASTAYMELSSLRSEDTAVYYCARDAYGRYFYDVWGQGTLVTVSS
T11 sequence (VL, as listed by the source, chain 2 of 2): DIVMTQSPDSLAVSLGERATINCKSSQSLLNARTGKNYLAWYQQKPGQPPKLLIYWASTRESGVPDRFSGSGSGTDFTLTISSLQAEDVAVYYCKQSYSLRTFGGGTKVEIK
Protocol: as §2, §3, §4

[12] = biological target: T12, ADI-48587; experiment: SPR Carterra avidity, yeast anti-ID
T12 construct: pH-dependent anti-CD3 antibody made in CHO cells
Protocol: as §2, §3, §4

[13] = biological target: T13, ADI-67447; experiment: SPR Carterra avidity, yeast anti-ID
T13 construct: anti-CD3 antibody made in CHO cells, captured by anti-human Fc
T13 sequence (VH, as listed by the source limits assumed, chain 1 of 2): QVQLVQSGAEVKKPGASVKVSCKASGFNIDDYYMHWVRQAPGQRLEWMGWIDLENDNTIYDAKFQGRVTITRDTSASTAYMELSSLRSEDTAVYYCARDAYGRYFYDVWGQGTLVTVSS
Protocol: as §2, §3, §4

[14] = biological target: T14, ADI-26916 IgG; experiment: SPR Carterra avidity, yeast anti-ID
T14 construct: anti-CD3 IgG
Protocol: as §2, §3, §4

[15] = biological target: T15, ADI-70330; experiment: SPR Carterra avidity, yeast anti-ID
T15 construct: anti-CD3 antibody made in CHO cells, captured by anti-human Fc
T15 sequence (VH, as listed by the source limits assumed, chain 1 of 2): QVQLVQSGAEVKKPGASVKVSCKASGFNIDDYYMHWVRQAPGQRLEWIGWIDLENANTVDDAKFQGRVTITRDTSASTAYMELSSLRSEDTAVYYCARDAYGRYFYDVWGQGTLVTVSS
Protocol: as §2, §3, §4

[16] = biological target: T16, ADI-76359; experiment: SPR Carterra avidity, yeast anti-ID
T16 construct: anti-CD3 antibody made in CHO cells, captured by anti-human Fc
T16 sequence (VH, as listed by the source, chain 1 of 2): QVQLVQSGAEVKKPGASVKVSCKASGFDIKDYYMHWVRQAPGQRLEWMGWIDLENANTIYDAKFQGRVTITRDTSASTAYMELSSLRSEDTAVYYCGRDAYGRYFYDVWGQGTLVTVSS
Protocol: as §2, §3, §4

[17] = biological target: T17, ADI-76358; experiment: SPR Carterra avidity, yeast anti-ID
T17 construct: anti-CD3 antibody made in CHO cells, captured by anti-human Fc
T17 sequence (VH, as listed by the source, chain 1 of 2): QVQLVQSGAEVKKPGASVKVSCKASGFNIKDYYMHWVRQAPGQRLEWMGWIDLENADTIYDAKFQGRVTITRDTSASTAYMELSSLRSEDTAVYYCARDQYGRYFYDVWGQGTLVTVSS
Protocol: as §2, §3, §4

[18] = biological target: T18, ADI-26924; experiment: SPR Carterra avidity, yeast anti-ID
T18 construct: anti-CD3 antibody made in CHO cells, captured by anti-human Fc
T18 sequence (VH, as listed by the source, chain 1 of 2): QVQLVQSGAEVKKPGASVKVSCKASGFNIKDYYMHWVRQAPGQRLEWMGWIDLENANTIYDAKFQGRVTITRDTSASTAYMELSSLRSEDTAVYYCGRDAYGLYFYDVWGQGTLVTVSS
Protocol: as §2, §3, §4

[19] = biological target: T19, ADI-48576; experiment: SPR Carterra avidity, yeast anti-ID
T19 construct: pH-dependent anti-CD3 antibody made in CHO cells
Protocol: as §2, §3, §4

[20] = biological target: T20, ADI-26921 IgG; experiment: SPR Carterra avidity, yeast anti-ID
T20 construct: anti-CD3 IgG
Protocol: as §2, §3, §4

[21] = biological target: T21, ADI-70327; experiment: SPR Carterra avidity, yeast anti-ID
T21 construct: anti-CD3 antibody made in CHO cells, captured by anti-human Fc
T21 sequence (VH, as listed by the source limits assumed, chain 1 of 2): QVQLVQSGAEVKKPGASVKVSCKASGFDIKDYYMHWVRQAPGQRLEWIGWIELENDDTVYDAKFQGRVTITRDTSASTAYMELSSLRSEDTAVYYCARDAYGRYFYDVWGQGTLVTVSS
Protocol: as §2, §3, §4

[22] = biological target: T22, ADI-70326; experiment: SPR Carterra avidity, yeast anti-ID
T22 construct: anti-CD3 antibody made in CHO cells, captured by anti-human Fc
T22 sequence (VH, as listed by the source limits assumed, chain 1 of 2): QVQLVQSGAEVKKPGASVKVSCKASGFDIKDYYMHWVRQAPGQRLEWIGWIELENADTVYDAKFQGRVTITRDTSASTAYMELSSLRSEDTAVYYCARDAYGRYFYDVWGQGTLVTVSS
Protocol: as §2, §3, §4

[23] = biological target: T23, ADI-74965; experiment: SPR Carterra avidity, yeast anti-ID
T23 construct: pH-dependent anti-CD3 antibody made in CHO cells
T23 sequence (VH, as listed by the source, chain 1 of 2): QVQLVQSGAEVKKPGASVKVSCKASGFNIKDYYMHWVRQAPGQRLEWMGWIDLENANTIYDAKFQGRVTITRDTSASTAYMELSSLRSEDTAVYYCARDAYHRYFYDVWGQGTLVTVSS
T23 sequence (VL, as listed by the source, chain 2 of 2): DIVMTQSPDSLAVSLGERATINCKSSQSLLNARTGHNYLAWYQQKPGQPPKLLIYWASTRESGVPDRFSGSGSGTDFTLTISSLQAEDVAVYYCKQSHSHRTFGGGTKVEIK
Protocol: as §2, §3, §4

[24] = biological target: T24, ADI-26915; experiment: SPR Carterra avidity, yeast anti-ID
T24 construct: anti-CD3 antibody made in CHO cells, captured by anti-human Fc
T24 sequence (VH, as listed by the source, chain 1 of 2): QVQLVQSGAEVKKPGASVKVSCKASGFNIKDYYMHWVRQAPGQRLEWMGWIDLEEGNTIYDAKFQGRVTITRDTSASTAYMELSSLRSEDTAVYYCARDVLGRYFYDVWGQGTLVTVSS
Protocol: as §2, §3, §4

[25] = biological target: T25, ADI-67450; experiment: SPR Carterra avidity, yeast anti-ID
T25 construct: anti-CD3 antibody made in CHO cells, captured by anti-human Fc
T25 sequence (VH, as listed by the source limits assumed, chain 1 of 2): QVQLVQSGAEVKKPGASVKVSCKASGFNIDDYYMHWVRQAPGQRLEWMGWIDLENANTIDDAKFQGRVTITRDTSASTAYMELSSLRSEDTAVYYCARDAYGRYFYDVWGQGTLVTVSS
Protocol: as §2, §3, §4

[26] = biological target: T26, ADI-76360; experiment: SPR Carterra avidity, yeast anti-ID
T26 construct: anti-CD3 antibody made in CHO cells, captured by anti-human Fc
Protocol: as §2, §3, §4

[27] = biological target: T27, ADI-26913 IgG; experiment: SPR Carterra avidity, yeast anti-ID
T27 construct: anti-CD3 IgG
Protocol: as §2, §3, §4

[28] = biological target: T28, ADI-48650; experiment: SPR Carterra avidity, yeast anti-ID
T28 construct: pH-dependent anti-CD3 antibody made in CHO cells
T28 sequence (VH, as listed by the source, chain 1 of 2): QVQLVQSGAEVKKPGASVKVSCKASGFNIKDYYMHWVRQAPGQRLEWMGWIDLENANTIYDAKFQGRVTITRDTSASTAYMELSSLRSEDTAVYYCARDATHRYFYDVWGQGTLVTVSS
T28 sequence (VL, as listed by the source, chain 2 of 2): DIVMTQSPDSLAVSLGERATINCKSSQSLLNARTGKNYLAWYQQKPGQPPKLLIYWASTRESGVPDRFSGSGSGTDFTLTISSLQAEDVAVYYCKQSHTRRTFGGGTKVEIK
Protocol: as §2, §3, §4

[29] = biological target: T29, ADI-67445; experiment: SPR Carterra avidity, yeast anti-ID
T29 construct: anti-CD3 antibody made in CHO cells, captured by anti-human Fc
Protocol: as §2, §3, §4

[30] = biological target: T30, ADI-74968; experiment: SPR Carterra avidity, yeast anti-ID
T30 construct: pH-dependent anti-CD3 antibody made in CHO cells
T30 sequence (VL, as listed by the source, chain 2 of 2): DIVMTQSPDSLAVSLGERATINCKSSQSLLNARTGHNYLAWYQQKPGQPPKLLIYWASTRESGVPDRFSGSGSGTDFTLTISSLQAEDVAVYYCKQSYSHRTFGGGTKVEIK
Protocol: as §2, §3, §4

[31] = biological target: T31, ADI-26909; experiment: SPR Carterra avidity, yeast anti-ID
T31 construct: anti-CD3 antibody made in CHO cells, captured by anti-human Fc
T31 sequence (VH, as listed by the source limits assumed, chain 1 of 2): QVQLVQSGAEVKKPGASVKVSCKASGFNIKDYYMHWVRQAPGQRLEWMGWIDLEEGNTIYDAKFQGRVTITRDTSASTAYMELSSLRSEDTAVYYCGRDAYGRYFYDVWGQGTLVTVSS
Protocol: as §2, §3, §4

[32] = biological target: T32, ADI-74966; experiment: SPR Carterra avidity, yeast anti-ID
T32 construct: pH-dependent anti-CD3 antibody made in CHO cells
Protocol: as §2, §3, §4

[33] = biological target: T33, ADI-48592; experiment: SPR Carterra avidity, yeast anti-ID
T33 construct: pH-dependent anti-CD3 antibody made in CHO cells
T33 sequence (VH, as listed by the source, chain 1 of 2): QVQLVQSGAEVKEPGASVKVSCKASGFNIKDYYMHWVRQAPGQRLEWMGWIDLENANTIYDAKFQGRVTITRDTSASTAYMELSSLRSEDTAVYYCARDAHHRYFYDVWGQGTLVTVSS
T33 sequence (VL, as listed by the source, chain 2 of 2): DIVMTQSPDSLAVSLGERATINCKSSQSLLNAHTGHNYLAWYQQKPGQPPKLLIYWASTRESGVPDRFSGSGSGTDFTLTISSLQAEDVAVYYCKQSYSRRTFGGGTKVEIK
Protocol: as §2, §3, §4

[34] = biological target: T34, ADI-26919; experiment: SPR Carterra avidity, yeast anti-ID
T34 construct: anti-CD3 antibody made in CHO cells, captured by anti-human Fc
Protocol: as §2, §3, §4

[35] = biological target: T35, ADI-26943; experiment: SPR Carterra avidity, yeast anti-ID
T35 construct: anti-CD3 antibody made in CHO cells, captured by anti-human Fc
T35 sequence (VH, as listed by the source, chain 1 of 2): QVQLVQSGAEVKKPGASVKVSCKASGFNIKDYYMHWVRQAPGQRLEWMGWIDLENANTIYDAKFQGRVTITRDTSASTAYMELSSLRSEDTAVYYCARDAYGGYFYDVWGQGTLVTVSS
T35 sequence (VL, as listed by the source, chain 2 of 2): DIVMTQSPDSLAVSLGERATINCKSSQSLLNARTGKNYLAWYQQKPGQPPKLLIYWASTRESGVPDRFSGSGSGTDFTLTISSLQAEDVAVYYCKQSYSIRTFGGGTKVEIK
Protocol: as §2, §3, §4

B1: ADI-34136 (antibody, V domains shown)
VH: QVQLVQSGAEVKKPGSSVKVSCKASGGTFSSYAISWVRQAPGQGLEWMGGIIPIFGTANYAQKFQGRVTITADESTSTAYMELSSLRSEDTAVYYCARGAPNYYGSGGYDDGWFDPWGQGTLVTVSS
VL: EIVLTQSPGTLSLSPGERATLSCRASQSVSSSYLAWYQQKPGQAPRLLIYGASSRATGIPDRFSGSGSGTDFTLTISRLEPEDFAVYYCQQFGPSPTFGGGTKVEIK
notes: anti-ID IgG
B1 was tested, and the Kd [1] was 0.75 nM, the Kd [2] was 0.1 nM and the Kd [3] was 0.12 nM. It also gave a Kd [4] of 0.42 nM, a Kd [5] of 0.14 nM and a Kd [6] of 0.25 nM. It also gave a Kd [7] of 0.15 nM, a Kd [8] of 30.4 nM and a Kd [9] of 1.2 nM. The binding result [10] was “binds”, the Kd [11] was 0.14 nM and the Kd [12] was 1.9 nM. For the same binder, the Kd [13] was 0.18 nM, the Kd [14] was 0.35 nM and the Kd [15] was 0.42 nM. For the same binder, the Kd [16] was 0.12 nM, the Kd [17] was 0.73 nM and the Kd [18] was 0.17 nM. The Kd [19] was 29 nM, the Kd [20] was 0.18 nM and the Kd [21] was 2 nM. The Kd [22] was 2.1 nM, the Kd [23] was 9.4 nM and the binding result [24] was “binds”. It also gave a Kd [25] of 0.56 nM, a Kd [26] of 0.35 nM and a Kd [27] of 0.18 nM. For the same binder, the Kd [28] was 3.3 nM, the Kd [29] was 0.34 nM and the Kd [30] was 1.2 nM. The Kd [31] was 0.3 nM, the Kd [32] was 0.64 nM and the binding result [33] was “binds”. For the same binder, the Kd [34] was 0.16 nM and the Kd [35] was 0.25 nM.
